Experimental data as given in paper PMC2172684 (The Journal of Cell Biology, 2003).
Numbering of substitutions follows the chain as printed. In names and notes the source's numbering stands.

Tests used:
Assay in all cases: ELISA
[1] = biological target: T1, GST-tagged Nup153 (895–1475) ( (mammalian), UniProt P49790 895-1475)
T1 sequence (looked up): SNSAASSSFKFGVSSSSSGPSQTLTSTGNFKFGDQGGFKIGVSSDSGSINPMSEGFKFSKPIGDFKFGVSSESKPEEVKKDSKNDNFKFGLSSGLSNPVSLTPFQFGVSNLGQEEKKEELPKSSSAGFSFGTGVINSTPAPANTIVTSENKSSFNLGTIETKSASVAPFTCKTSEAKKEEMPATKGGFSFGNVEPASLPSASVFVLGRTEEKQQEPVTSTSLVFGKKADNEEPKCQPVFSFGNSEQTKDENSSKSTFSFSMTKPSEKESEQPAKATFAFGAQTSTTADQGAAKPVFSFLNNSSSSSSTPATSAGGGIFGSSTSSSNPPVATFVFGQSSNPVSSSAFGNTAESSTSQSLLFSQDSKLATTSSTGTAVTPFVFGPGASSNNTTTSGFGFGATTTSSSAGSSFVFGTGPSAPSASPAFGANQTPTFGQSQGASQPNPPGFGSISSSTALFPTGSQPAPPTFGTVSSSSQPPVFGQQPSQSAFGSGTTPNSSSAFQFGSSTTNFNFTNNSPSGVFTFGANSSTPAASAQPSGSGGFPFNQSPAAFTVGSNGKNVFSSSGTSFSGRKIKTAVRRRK

importin β E214A = importin β E214A (human, UniProt Q14974 1-876, E214A)
wild-type importin β = wild-type importin β (human, UniProt Q14974 1-876)
importin β I178A = importin β I178A (human, UniProt Q14974 1-876, I178A)
importin β F217A = importin β F217A (human, UniProt Q14974 1-876, F217A)
GST–RanGTP = GST–RanGTP (UniProt P62826 1-216)

B1: importin β (304–876) (domain or fragment, human, UniProt Q14974 304-876, looked up)
chain: GRPPEHTSKFYAKGALQYLVPILTQTLTKQDENDDDDDWNPCKAAGVCLMLLATCCEDDIVPHVLPFIKEHIKNPDWRYRDAAVMAFGCILEGPEPSQLKPLVIQAMPTLIELMKDPSVVVRDTAAWTVGRICELLPEAAINDVYLAPLLQCLIEGLSAEPRVASNVCWAFSSLAEAAYEAADVADDQEEPATYCLSSSFELIVQKLLETTDRPDGHQNNLRSSAYESLMEIVKNSAKDCYPAVQKTTLVIMERLQQVLQMESHIQSTSDRIQFNDLQSLLCATLQNVLRKVQHQDALQISDVVMASLLRMFQSTAGSGGVQEDALMAVSTLVEVLGGEFLKYMEAFKPFLGIGLKNYAEYQVCLAAVGLVGDLCRALQSNIIPFCDEVMQLLLENLGNENVHRSVKPQILSVFGDIALAIGGEFKKYLEVVLNTLQQASQAQVDKSDYDMVDYLNELRESCLEAYTGIVQGLKGDQENVHPDVMLVQPRVEFILSFIDHIAGDEDHTDGVVACAAGLIGDLCTAFGKDVLKLVEARPMIHELLTEGRRSKTNKAKTLATWATKELRKLKNQA
Binder B1 has a Kd [1] of 152 ± 17.5 nM.

B2: GST-tagged full-length Nup62 (natural protein, UniProt P17955 1-525, looked up)
chain: MSGFNFGGTGAPAGGFTFGTAKTATTTPATGFSFSASGTGTGGFNFGTPSQPAATTPSTSLFSLATQTSTTQTPGFNFGTTPASGGTGFSLGISTPKLSLSSTAATPATANTGSFGLGSSTLTNAISGASTSSQGTAPTGFVFGSSTTSAPSTGTTGFSFTSGSASQPGASGFNIGSVGSLAQPTALSGSPFTPATLATTTAGATQPAAATPTAATTSAGSTLFASIAAAPASSSTTVLSLSAPATTAATPTAGTLGFSLKAPGAAPGASTTSTTTTTTTTTTTASTSSSTTTTGFALSLKPLVPAGPSSVAATALPASSTAVGTTTGPAMTYAQLESLINKWSLELEDQERHFLQQATQVNAWDRTLIENGEKITSLHREVEKVKLDQKRLDQELDFILSQQKELEDLLSPLEESVKEQSGTIYLQHADEEREKTYKLAENIDAQLKRMAQDLKDIIEHLNMAGGPADTSDPLQQICKILNAHMDSLQWVDQSSALLQRRVEEASRVCESRRKEQERSLRIAFD
With B2 the Kd (importin β E214A) was 770 ± 123 nM, the Kd (wild-type importin β) was 77.3 ± 11.6 nM and the Kd (importin β I178A) was 89 ± 9 nM. It also gave a Kd (importin β F217A) of 227 ± 33.3 nM.

B3: importin β I178A/F217A/Y255A/I263R (m-N) (natural protein)
chain: MELITILEKTVSPDRLELEAAQKFLERAAVENLPTFLVELSRVLANPGNSQVARVAAGLQIKNSLTSKDPDIKAQYQQRWLAIDANARREVKNYVLQTLGTETYRPSSASQCVAGIACAEIPVNQWPELIPQLVANVTNPNSTEHMKESTLEAIGYICQDIDPEQLQDKSNEILTAIAQGMRKEEPSNNVKLAATNALLNSLEFTKANFDKESERHAIMQVVCEATQCPDTRVRVAALQNLVKIMSLYYQYMETAMGPALFARTIEAMKSDIDEVALQGIEFWSNVCDEEMDLAIEASEAAEQGRPPEHTSKFYAKGALQYLVPILTQTLTKQDENDDDDDWNPCKAAGVCLMLLATCCEDDIVPHVLPFIKEHIKNPDWRYRDAAVMAFGCILEGPEPSQLKPLVIQAMPTLIELMKDPSVVVRDTAAWTVGRICELLPEAAINDVYLAPLLQCLIEGLSAEPRVASNVCWAFSSLAEAAYEAADVADDQEEPATYCLSSSFELIVQKLLETTDRPDGHQNNLRSSAYESLMEIVKNSAKDCYPAVQKTTLVIMERLQQVLQMESHIQSTSDRIQFNDLQSLLCATLQNVLRKVQHQDALQISDVVMASLLRMFQSTAGSGGVQEDALMAVSTLVEVLGGEFLKYMEAFKPFLGIGLKNYAEYQVCLAAVGLVGDLCRALQSNIIPFCDEVMQLLLENLGNENVHRSVKPQILSVFGDIALAIGGEFKKYLEVVLNTLQQASQAQVDKSDYDMVDYLNELRESCLEAYTGIVQGLKGDQENVHPDVMLVQPRVEFILSFIDHIAGDEDHTDGVVACAAGLIGDLCTAFGKDVLKLVEARPMIHELLTEGRRSKTNKAKTLATWATKELRKLKNQA
B3 showed a Kd (GST–RanGTP) of 3.9 ± 0.4 nM.

B4: importin β (1–396) (domain or fragment, human, UniProt Q14974 1-396, looked up)
chain: MELITILEKTVSPDRLELEAAQKFLERAAVENLPTFLVELSRVLANPGNSQVARVAAGLQIKNSLTSKDPDIKAQYQQRWLAIDANARREVKNYVLQTLGTETYRPSSASQCVAGIACAEIPVNQWPELIPQLVANVTNPNSTEHMKESTLEAIGYICQDIDPEQLQDKSNEILTAIIQGMRKEEPSNNVKLAATNALLNSLEFTKANFDKESERHFIMQVVCEATQCPDTRVRVAALQNLVKIMSLYYQYMETYMGPALFAITIEAMKSDIDEVALQGIEFWSNVCDEEMDLAIEASEAAEQGRPPEHTSKFYAKGALQYLVPILTQTLTKQDENDDDDDWNPCKAAGVCLMLLATCCEDDIVPHVLPFIKEHIKNPDWRYRDAAVMAFGCILEG
With B4 the Kd [1] was 1.2 ± 0.1 nM.

B5: importin β m-N (1–396) (domain or fragment, human, UniProt Q14974 1-396, looked up)
chain: B4 chain with I178A, F217A, Y255A, I263R
With B5 the Kd [1] was 160 ± 25.3 nM.
